Data: patent US20250250357A1 (NANJING ZAIMING PHARMACEUTICAL, published 2025)
Where a chain is given by its changes, count along the chain named.

B1: S009-F8-31.22 (antibody, human IgG1, kappa, V domains shown)
VH: EVQLVESGGDLVKPGGSLKLSCAASGFTFSTYGMSWVRQTPDKRLEWVATISSGGSYTYYPDSLKGRFTISRDNAKNTLYLQMSSLKSEDTAMYYCARHEGYYYGKDYWGQGTTLTVSS
VL: DIVLTQSPATLSVTPGDSVSLSCRASHSISNNLHWYQQKSHESPRLLIKYASQSISGIPSKFSGSGSGTDFTLSINSVETEDFGMYFCQQTNSWPLTFGAGTKLELKR
notes: Human-murine chimeric antibody, human IgG1 heavy and kappa light constant regions
B2: S009-F8-15.19 (antibody, human IgG1, kappa, V domains shown)
VH: EFQLQQSGPELVKPGASVKISCKASGYSFTDYNMNWVKQSNGKSLEWIGIINPYYGTTSNNQNFKGKATLTVDQSSSTAYMQLNSLTSDDSAVYYCARWLRRDAMDYWGQGTSVTVSS
VL: DIVMTPSHKFMSTSVGDRVSIACKASQDVGSSVAWYQQKPGQSPKLLIYWTSTRHTGVPDRFTGSGSGTDFTLTISNVQSEDLADYFCQQYSSYPWTFGGGTKLEIKR
notes: as for B1
B3: S009-F8-33.12 (antibody, human IgG1, kappa, V domains shown)
VH: EVQLQQSGAELVKPGASVKLSCTASAFNIKDYYMHWVKQRTEQGLEWIGRIDPEDGETKYAPKFQGKATITADTSSNTAYLQLSSLTSEDTAVYYCASGSGTGAMDYWGQGTSVTVSS
VL: DIVMTQSQKFMSTSVGDRVSITCKASQNVRTAVGWYQQKPGQSPKALIYLASNRHTGVPDRFTGSGSGTDFTLTISNVQSEDLADYFCLQHWNSPYTFGGGTKLVIKR
notes: as for B1
B4: S009-F8-22.23 (antibody, human IgG1, kappa, V domains shown)
VH: QVQLKQSGPGLVQPSQSLSITCTVSGFSLFSYGVHWVRQSPGKGLEWLGVIWSGGSTDYNAAFISRLSISKDNSKSQVFFKMNSLQADDTAMYYCARNGGSMITTLYYAMDYWGQGTSVTVSS
VL: DVVMTQTPLSLPVSLGDQASISCRSSQSLVHSYGNTYLHWYLQKPGQSPKLLIYKVSNRFSGVPDRFSGSGSGTDFTLKISRVEAEDLGVYFCSQSTHIPFTFGGGTKLEIKR
notes: as for B1
B5: S009-F8-32.3 (antibody, human IgG1, kappa, V domains shown)
VH: QVQLKESGPGLVAPSQSLSITCTVSGFSLSSYAISWVRQPPGKGLEWLGVIWTGGGTNYNSALKSRLSISKDNSKSQVFLKMNSLQTDDTARFYCARNNYGRLDYAMDYWGQGTSVTVSS
VL: B4 VL with S32G, Y33N, A85T, I99V, G105S
notes: as for B1
B6: S009-F8-18.9 (antibody, human IgG1, kappa, V domains shown)
VH: EFQLQQSGPELVKPGASVKISCKASGYSFTDYNMNWVKQSNGKSLEWIGIINPNYGTTSYNQKFKGRATLTVDQSSSTAYVQLNSLTSEDSAVYYCARGGYDNEAMDYWGQGTSVTVSS
VL: QIVLTQSPAIMSASPGEKVTMTCSASSSVSYMHWYQQKSGTSPKRWIYDTSKLASGVPARFSGSGSGTSYSLTISSMEAEDAATYYCQQWSSNPPTFGAGTKLELKR
notes: as for B1
B7: S009-F8-19.21 (antibody, human IgG1, kappa, V domains shown)
VH: B6 VH with A24T, I50V, S59G, R67K, V81M, N103G, Q111H
VL: B6 VL with S30N, N93Y, A99G, L105I
notes: as for B1
B8: S009-F8-27.1 (antibody, human IgG1, kappa, V domains shown)
VH: EVQLVESGGGLVKPGGSLKLSCAASGFTFSSYAMSWVRQTPEKRLEWVATISDGGNYTYYPDNVKGRFTISRDNAKNNLYLQMSHLKSEDTAMYYCAGDRGYPYAMDSWGQGTSVTVSS
VL: NIMMTQSPSSLAVSAGEKVTMSCKSSQSVLYSSNQKNYLAWYQQKPGQSPKLLIYWASTRESGVPDRFTGSGSGTDFTLTISNVHAEDLAVYYCHQYLSSLTFGAGTKLELKR
notes: as for B1
B9: S009-F8-28.23 (antibody, human IgG1, kappa, V domains shown)
VH: B8 VH with G10D, N56S, K65E, P103S, M106L, S108Y
VL: B8 VL with N83S, H85Q
notes: as for B1
B10: S009-F8-29.1 (antibody, human IgG1, kappa, V domains shown)
VH: QVQLQQSGAELARPGASVKMSCKASGYTFISYTMHWVKQRPGQGLEWIGYINPSSGYTKYNQKFKDKATLTADKSSSTAYMQLNSLTSEDSAVYYCARYYSNPDYYAMDYWGQGTSVTVSS
VL: QIVLTQSPAIMSASPGEKVTITCSASSSVSYMHWFQQKPGTSPKLWIYSTSNLASGVPARFSGSGSGTSYSLTISRMEAEDAATYYCQQRSSYPLTFGGGTKLELKR
notes: as for B1
B11: S009-F8-36.12 (antibody, human IgG1, kappa, V domains shown)
VH: EVQLQQSGPELVKPGASVKISCKASGYTFTDYYMNWVKQSHGKSLEWIGDINPNNGGTSYNQKFKGKATLTVDKSSSTAYMELRSLTSEDSAVYYCASWGYGSSSRGYFDYWGQGTTLTVSS
VL: QIVLSQSPAILSASPGEKVTMTCRASSSVSYMHWYQQKPGSSPKPWIYATSNLASGVPARFSGSGSGTSYSLTISRVEAEDAATYYCQQWSSNPWTFGGGTKLEIKR
notes: as for B1
B12: S009-F8-24.14 (antibody, human IgG1, kappa, V domains shown)
VH: EFQLQQSGPELVKPGASVKISCKASGYSFTDYNMNWVKLSNGKSLEWIGVIIPNYGTSSYNQKFKGKATLTVDQSSSTAYMQLNSLTSEDSAVYYCARWDNYYGSSLDYWGQGTTLTVSS
VL: DIVMTQSQKFMSTTVGDRVSITCKASQNVGTAVAWYQQKPGQSPKLLIYSASNRYTGVPDRFTGSGSGTDFILTISNMQSEDLADYFCQQYSSYPLTFGAGTKLELKR
notes: as for B1

Target: T1, human MSLN-FL-his protein (human, UniProt Q13421 296-580)
T1 construct: Made in HEK293E cells, purified on nickel column; it is put last here; also called human MSLN full-length protein; hMSLN-FL-his; not shown: His tag
Assay: ELISA on coated antigen, antibody 0.01 nM

T1 sequence (Q13421 other isoform, or with tags, fused parts or gaps): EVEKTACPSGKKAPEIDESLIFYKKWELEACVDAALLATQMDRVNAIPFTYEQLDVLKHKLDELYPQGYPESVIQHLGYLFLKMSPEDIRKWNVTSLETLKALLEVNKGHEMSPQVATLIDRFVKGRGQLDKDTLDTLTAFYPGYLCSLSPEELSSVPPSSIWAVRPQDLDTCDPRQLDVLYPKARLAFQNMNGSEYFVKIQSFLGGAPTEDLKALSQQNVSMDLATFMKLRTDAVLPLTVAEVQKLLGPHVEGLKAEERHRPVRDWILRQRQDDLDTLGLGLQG

Row | OD450 | Binder
1 | 0.85 OD | B1
2 | 0.24 OD | B2
3 | 0.43 OD | B3
4 | 0.92 OD | B4
5 | 0.48 OD | B5
6 | 0.71 OD | B6
7 | 0.4 OD | B7
8 | 0.31 OD | B8
9 | 0.24 OD | B9
10 | 0.48 OD | B10
11 | 0.18 OD | B11
12 | 0.75 OD | B12

Target: T1, human MSLN-FL-his protein
Assay: ELISA on coated antigen, antibody 1 nM
Experimental: (§1) The plate was sealed with a plastic film and incubated at 4° C. overnight. The next day, the plate was washed twice with PBST, and a blocking buffer [PBS+2% (w/w) BSA] was added for blocking at room temperature for 2 h. The blocking buffer was discarded, and a chimeric antibody or negative control antibody serially diluted from 100 nM was added at 50 μL/well. After incubation at 37° C. for 2 h, the plate was washed 3 times with PBST. […] After incubation at 37° C. for 2 h, the plate was washed 5 times with PBST. A TMB substrate was added at 50 μL/well for incubation at room temperature for 5-10 min, and then a stop solution (1.0 N HCl) was added at 50 μL/well.

Row | OD450 | Binder
13 | 2.53 OD | B1
14 | 2.23 OD | B2
15 | 2.57 OD | B3
16 | 2.49 OD | B4
17 | 2.64 OD | B5
18 | 2.29 OD | B6
19 | 2.05 OD | B7
20 | 2.23 OD | B8
21 | 2.63 OD | B9
22 | 2.9 OD | B10
23 | 2.21 OD | B11
24 | 2.77 OD | B12

Target: T1, human MSLN-FL-his protein
Assay: ELISA on coated antigen, antibody 0.001 nM
Experimental: as §1

Row | OD450 | Binder
25 | 0.2 OD | B1
26 | 0.08 OD | B2
27 | 0.11 OD | B3
28 | 0.44 OD | B4
29 | 0.11 OD | B5
30 | 0.15 OD | B6
31 | 0.1 OD | B7
32 | 0.08 OD | B8
33 | 0.08 OD | B9
34 | 0.13 OD | B10
35 | 0.06 OD | B11
36 | 0.18 OD | B12

Target: T1, human MSLN-FL-his protein
Assay: ELISA on coated antigen, no antibody (blank, column 'none')
Experimental: as §1

Row | OD450 | Binder
37 | 0.08 OD | B1
38 | 0.05 OD | B2
39 | 0.06 OD | B3
40 | 0.04 OD | B4
41 | 0.04 OD | B5
42 | 0.05 OD | B6
43 | 0.06 OD | B7
44 | 0.04 OD | B8
45 | 0.05 OD | B9
46 | 0.18 OD | B10
47 | 0.04 OD | B11
48 | 0.06 OD | B12

Target: T1, human MSLN-FL-his protein
Assay: ELISA on coated antigen, antibody 0.1 nM
Experimental: as §1

Row | OD450 | Binder
49 | 2.19 OD | B1
50 | 1.11 OD | B2
51 | 1.61 OD | B3
52 | 1.71 OD | B4
53 | 1.63 OD | B5
54 | 1.93 OD | B6
55 | 1.61 OD | B7
56 | 1.34 OD | B8
57 | 1.04 OD | B9
58 | 1.71 OD | B10
59 | 0.73 OD | B11
60 | 2.02 OD | B12

Target: T1, human MSLN-FL-his protein
Assay: ELISA on coated antigen, antibody 0.0001 nM
Experimental: as §1

Row | OD450 | Binder
61 | 0.08 OD | B1
62 | 0.05 OD | B2
63 | 0.05 OD | B3
64 | 0.29 OD | B4
65 | 0.07 OD | B5
66 | 0.06 OD | B6
67 | 0.06 OD | B7
68 | 0.05 OD | B8
69 | 0.05 OD | B9
70 | 0.07 OD | B10
71 | 0.05 OD | B11
72 | 0.1 OD | B12

Target: T1, human MSLN-FL-his protein
Assay: ELISA on coated antigen, antibody 100 nM
Experimental: as §1

Row | OD450 | Binder
73 | 2.66 OD | B1
74 | 2.64 OD | B2
75 | 2.95 OD | B3
76 | 2.9 OD | B4
77 | 3.03 OD | B5
78 | 2.42 OD | B6
79 | 2.37 OD | B7
80 | 2.5 OD | B8
81 | 3 OD | B9
82 | 3.07 OD | B10
83 | 2.71 OD | B11
84 | 2.91 OD | B12

Target: T1, human MSLN-FL-his protein
Assay: ELISA on coated antigen, antibody 10 nM
Experimental: as §1

Row | OD450 | Binder
85 | 2.56 OD | B1
86 | 2.47 OD | B2
87 | 2.92 OD | B3
88 | 2.88 OD | B4
89 | 2.85 OD | B5
90 | 2.39 OD | B6
91 | 2.32 OD | B7
92 | 2.37 OD | B8
93 | 3.13 OD | B9
94 | 3.2 OD | B10
95 | 2.69 OD | B11
96 | 2.98 OD | B12
